Results taken from the supplement of paper PMC11136658.

Tested on: peptide library, one residue held at a place counted from the Y acceptor
Test: relative phosphorylation of the sub-library (ratio to the mean residue at this position); higher = residue favoured
Procedure, shortened: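 Every value reflects phosphorylation relative to the mean randomized residue. The sum of the 18 randomized residues, or 16 in the Ser/Thr-free library, served to normalize intensities at each position, which were then multiplied by that number. Intensities came from phosphorimaging with ImageQuant of biotinylated Tyr-centred peptides captured on streptavidin membranes after 90 min with purified recombinant kinases and 50 μM ATP plus γ-32P-ATP.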

Chain of KDR, construct: aa789-end, human (P35968 789-1356, looked up): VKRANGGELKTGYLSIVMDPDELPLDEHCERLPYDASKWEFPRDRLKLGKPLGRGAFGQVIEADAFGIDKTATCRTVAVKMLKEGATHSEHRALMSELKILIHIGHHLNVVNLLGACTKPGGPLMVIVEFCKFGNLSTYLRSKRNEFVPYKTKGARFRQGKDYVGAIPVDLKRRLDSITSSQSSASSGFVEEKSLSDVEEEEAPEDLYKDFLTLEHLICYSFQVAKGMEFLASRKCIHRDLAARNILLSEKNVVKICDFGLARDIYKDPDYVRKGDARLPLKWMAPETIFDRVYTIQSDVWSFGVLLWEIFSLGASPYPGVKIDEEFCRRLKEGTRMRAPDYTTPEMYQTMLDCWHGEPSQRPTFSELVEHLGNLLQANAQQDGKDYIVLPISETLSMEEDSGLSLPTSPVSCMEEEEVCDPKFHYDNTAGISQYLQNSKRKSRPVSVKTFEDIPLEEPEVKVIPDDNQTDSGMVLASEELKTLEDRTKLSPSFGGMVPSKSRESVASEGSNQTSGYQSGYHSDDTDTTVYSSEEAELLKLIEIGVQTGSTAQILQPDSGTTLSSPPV
Chain of JAK3, construct: aa795-end, human (P52333 795-1124, looked up): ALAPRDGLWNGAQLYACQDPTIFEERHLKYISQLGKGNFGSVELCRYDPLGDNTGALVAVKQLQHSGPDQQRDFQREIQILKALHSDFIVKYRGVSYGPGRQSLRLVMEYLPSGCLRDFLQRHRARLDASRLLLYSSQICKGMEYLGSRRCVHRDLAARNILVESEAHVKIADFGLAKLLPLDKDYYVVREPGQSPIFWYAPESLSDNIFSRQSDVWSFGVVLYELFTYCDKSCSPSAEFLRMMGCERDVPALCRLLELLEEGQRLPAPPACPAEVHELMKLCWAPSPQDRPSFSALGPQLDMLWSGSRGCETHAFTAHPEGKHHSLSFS

JAK3, construct: aa795-end, human (from UniProt P52333)
relative phosphorylation
Settings | at +1 | at +2 | at +3 | at +4 | at +5 | at -1 | at -2 | at -3 | at -4 | at -5
A fixed | 0.882 | 0.772 | 0.718 | 0.933 | 1.08 | 0.848 | 0.973 | 1.02 | 1.07 | 1.1
D fixed | 0.438 | 0.975 | 0.429 | 0.902 | 0.84 | 3 | 1.02 | 1.3 | 1.08 | 1.09
E fixed | 0.497 | 0.834 | 0.342 | 0.687 | 0.843 | 2.01 | 1.05 | 1.18 | 1.22 | 0.94
F fixed | 2.22 | 1.17 | 1.18 | 1.07 | 0.874 | 0.763 | 0.839 | 0.962 | 1.05 | 1.02
G fixed | 0.36 | 0.532 | 0.643 | 1.08 | 1.1 | 0.699 | 1.24 | 1.07 | 1.07 | 1.2
H fixed | 1.44 | 0.984 | 1.19 | 1.01 | 0.967 | 0.968 | 1.03 | 1.11 | 1.04 | 1.12
I fixed | 1.17 | 0.644 | 1.54 | 0.676 | 0.66 | 0.817 | 0.597 | 0.632 | 0.682 | 0.736
K fixed | 0.436 | 0.82 | 0.794 | 1.29 | 1.24 | 0.493 | 0.982 | 0.857 | 0.91 | 1.12
L fixed | 0.877 | 0.998 | 1.71 | 0.839 | 0.771 | 0.69 | 0.862 | 0.707 | 0.726 | 0.793
M fixed | 1.06 | 1.21 | 1.5 | 0.883 | 0.852 | 0.593 | 0.86 | 0.72 | 0.847 | 0.828
N fixed | 0.54 | 1.17 | 0.7 | 0.965 | 1.22 | 1.31 | 1.31 | 1.41 | 1.04 | 0.946
P fixed | 0.455 | 0.945 | 0.773 | 1.02 | 1.22 | 0.759 | 1.07 | 1.07 | 1.11 | 1.03
Q fixed | 1.04 | 1.02 | 0.883 | 1.22 | 1.13 | 0.874 | 1.31 | 1.15 | 1.11 | 0.971
R fixed | 0.665 | 0.876 | 1.03 | 1.3 | 1.46 | 0.55 | 1.1 | 1.01 | 1.15 | 1.14
S fixed | 0.697 | 0.848 | 0.916 | 1.11 | 1.4 | 0.831 | 1.22 | 1.21 | 1.07 | 1.05
T fixed | 0.73 | 0.902 | 1.15 | 0.972 | 0.959 | 0.935 | 0.989 | 1.07 | 0.839 | 0.973
V fixed | 1.65 | 0.807 | 1.2 | 0.819 | 0.716 | 0.842 | 0.671 | 0.72 | 0.7 | 0.77
W fixed | 2.27 | 2.25 | 1.37 | 1.31 | 1.03 | 0.791 | 1.09 | 1.1 | 1.19 | 1.19
pThr fixed | 0.626 | 1.2 | 0.391 | 0.528 | 0.682 | 2.23 | 1 | 1.16 | 1.01 | 0.871
pTyr fixed | 1.04 | 0.925 | 0.369 | 0.583 | 0.725 | 2.37 | 1.05 | 1.32 | 1.01 | 0.825

KDR, construct: aa789-end, human (from UniProt P35968)
relative phosphorylation
Settings | at +1 | at +2 | at +3 | at +4 | at +5 | at -1 | at -2 | at -3 | at -4 | at -5
A fixed | 0.852 | 0.685 | 0.543 | 0.829 | 0.944 | 0.816 | 0.954 | 0.915 | 1.04 | 1
D fixed | 0.301 | 0.599 | 0.314 | 0.665 | 0.745 | 2.25 | 1.1 | 1.21 | 1.04 | 0.987
E fixed | 0.416 | 0.621 | 0.246 | 0.608 | 0.696 | 1.46 | 1.2 | 1.29 | 1.26 | 0.973
F fixed | 1.6 | 1.34 | 2.2 | 1.1 | 1.04 | 0.846 | 0.617 | 0.819 | 0.818 | 0.816
G fixed | 0.612 | 0.417 | 0.465 | 1.01 | 1.13 | 0.631 | 1.36 | 1.17 | 1.33 | 1.21
H fixed | 1.37 | 0.86 | 0.523 | 0.95 | 0.978 | 1.37 | 1.12 | 1.02 | 0.975 | 1.03
I fixed | 1.22 | 0.919 | 2.05 | 0.733 | 0.86 | 1.05 | 0.546 | 0.573 | 0.741 | 0.756
K fixed | 0.944 | 1.32 | 0.469 | 1.52 | 1.17 | 0.726 | 1.21 | 1.18 | 1.2 | 1.49
L fixed | 1.06 | 1.39 | 2.56 | 0.906 | 0.907 | 0.886 | 0.723 | 0.745 | 0.788 | 0.771
M fixed | 1.17 | 1.06 | 2.1 | 0.996 | 1.04 | 0.654 | 0.645 | 0.699 | 0.826 | 0.857
N fixed | 0.634 | 1.12 | 0.465 | 0.862 | 1.05 | 1.36 | 1.32 | 1.23 | 0.886 | 1.08
P fixed | 0.645 | 0.63 | 0.787 | 1.29 | 1.26 | 0.842 | 1.08 | 1.15 | 1.28 | 1.14
Q fixed | 1.27 | 1.01 | 0.561 | 1.02 | 0.916 | 1.07 | 1.19 | 1.09 | 1.12 | 1.01
R fixed | 1.14 | 1.77 | 0.7 | 1.6 | 1.39 | 0.841 | 1.55 | 1.29 | 1.36 | 1.44
S fixed | 0.712 | 0.921 | 0.599 | 0.982 | 1.09 | 0.671 | 1.14 | 1.05 | 0.856 | 0.973
T fixed | 0.939 | 0.924 | 0.675 | 0.989 | 1.18 | 0.86 | 0.938 | 1.06 | 0.743 | 0.947
V fixed | 1.79 | 1.02 | 1.65 | 0.841 | 0.733 | 0.962 | 0.637 | 0.633 | 0.756 | 0.768
W fixed | 1.31 | 1.39 | 1.09 | 1.09 | 0.872 | 0.689 | 0.658 | 0.883 | 0.991 | 0.761
pThr fixed | 0.636 | 1.09 | 0.307 | 0.54 | 0.602 | 1.64 | 1.14 | 1.41 | 1.1 | 1.25
pTyr fixed | 2.12 | 1.83 | 0.405 | 0.526 | 0.731 | 2.89 | 1.99 | 2.27 | 2.12 | 1.45
